Test results published in publication PMC8459920 (Molecular & Cellular Proteomics : MCP, 2021).

Biological target: T1, Cullin-5 (Cul5) (UniProt Q93034 1-780)
T1 construct: also called full-length Cul5
T1 sequence: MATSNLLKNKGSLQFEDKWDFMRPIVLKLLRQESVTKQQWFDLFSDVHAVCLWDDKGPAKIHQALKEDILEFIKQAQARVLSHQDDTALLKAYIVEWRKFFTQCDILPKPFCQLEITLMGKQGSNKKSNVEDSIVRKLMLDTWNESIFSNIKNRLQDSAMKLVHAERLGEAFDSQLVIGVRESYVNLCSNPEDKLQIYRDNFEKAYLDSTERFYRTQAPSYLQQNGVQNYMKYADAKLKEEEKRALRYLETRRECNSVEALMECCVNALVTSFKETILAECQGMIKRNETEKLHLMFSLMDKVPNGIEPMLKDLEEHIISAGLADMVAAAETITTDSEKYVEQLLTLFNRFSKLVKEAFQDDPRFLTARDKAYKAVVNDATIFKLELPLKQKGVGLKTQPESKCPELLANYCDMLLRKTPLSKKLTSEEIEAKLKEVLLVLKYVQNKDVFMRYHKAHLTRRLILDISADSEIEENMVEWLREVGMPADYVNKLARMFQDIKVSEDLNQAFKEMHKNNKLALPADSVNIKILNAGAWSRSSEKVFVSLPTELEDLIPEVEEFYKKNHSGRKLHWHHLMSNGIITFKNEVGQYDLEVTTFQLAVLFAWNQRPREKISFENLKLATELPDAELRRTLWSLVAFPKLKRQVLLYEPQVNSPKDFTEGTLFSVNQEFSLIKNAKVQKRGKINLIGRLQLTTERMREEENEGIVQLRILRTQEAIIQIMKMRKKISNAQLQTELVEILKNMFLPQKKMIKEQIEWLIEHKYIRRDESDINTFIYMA
Assay: cross-linking; DSSO cross-linking with LC-MS3 (XL-MS) of reconstituted complexes at ~5 uM in 20 mM HEPES pH 7.5, 300 mM NaCl, 10% glycerol; 37 °C, 30 min; cross-linked SDS-PAGE bands digested in gel with trypsin or chymotrypsin; data of the four complexes pooled
Conditions: both partners purified

B1: Rbx2 (natural protein)
chain: MADVEDGEETCALASHSGSSGSKSGGDKMFSLKKWNAVAMWSWDVECDTCAICRVQVMDACLRCQAENKQEDCVVVWGECNHSFHNCCMSLWVKQNNRCPLCQQDWVVQRIGK
notes: also called E2 docking protein Rbx2
Q: Does B1 bind?
A: Result: binds
